Series [1] has as its target T1, DEAF1-FLAG (human, UniProt O75398 1-565).
T1 sequence: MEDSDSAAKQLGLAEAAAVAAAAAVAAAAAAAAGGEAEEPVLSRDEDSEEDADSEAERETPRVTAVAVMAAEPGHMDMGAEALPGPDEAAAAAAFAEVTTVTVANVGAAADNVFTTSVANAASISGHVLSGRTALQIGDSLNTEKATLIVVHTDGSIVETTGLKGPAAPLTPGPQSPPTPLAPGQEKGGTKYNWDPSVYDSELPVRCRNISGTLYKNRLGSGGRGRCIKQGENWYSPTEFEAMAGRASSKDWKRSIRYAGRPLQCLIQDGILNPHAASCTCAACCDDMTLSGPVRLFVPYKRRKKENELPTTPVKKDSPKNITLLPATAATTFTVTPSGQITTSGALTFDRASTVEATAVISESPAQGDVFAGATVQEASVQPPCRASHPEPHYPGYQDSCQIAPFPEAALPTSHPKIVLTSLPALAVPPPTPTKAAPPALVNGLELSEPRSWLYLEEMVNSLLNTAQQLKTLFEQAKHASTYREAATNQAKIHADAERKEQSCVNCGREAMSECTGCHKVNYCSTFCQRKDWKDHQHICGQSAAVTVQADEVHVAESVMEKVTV
The experiment in a line: EMSA; no shift; EMSA: 100 mM KCl, 50 mM Tris pH 7.5, 1 mM DTT, 25 °C, 30 min protein preincubation then 30 min with 32P probe; 4% native gel. The settings on record: protein: recombinant; tags: FLAG (C-terminal, from the name DEAF1-FLAG; also written FLAG-DEAF1); chain copies: 2; label: 32P in EMSA.

Another series has as its target Ku70;FLAG-Ku80 (human?;human?, UniProt P12956;P13010 1-609;1-732, |). The experiment in a line: EMSA; DNA end binding; EMSA: 100 mM KCl, 50 mM Tris pH 7.5, 1 mM DTT, 25 °C, 30 min protein preincubation then 30 min with 32P probe; 4% native gel. The settings on record: protein: recombinant;recombinant; tags: none;FLAG (N-terminal, from the name); copies: 1;1; label: 32P in EMSA. In general terms: Mobility shift assays separate free from complexed probe on a gel.

Series [2] deals with T1, DEAF1-FLAG. The experiment in a line: EMSA; doublet of shifted bands; EMSA: 100 mM KCl, 50 mM Tris pH 7.5, 1 mM DTT, 25 °C, 30 min protein preincubation then 30 min with 32P probe; 4% native gel. The conditions noted are these: protein: recombinant; tags: FLAG (C-terminal, from the name DEAF1-FLAG; also written FLAG-DEAF1); chain copies: 2; label: 32P in EMSA.

Chain of Ku70;FLAG-Ku80 (P12956 whole entry, chain 1 of 2): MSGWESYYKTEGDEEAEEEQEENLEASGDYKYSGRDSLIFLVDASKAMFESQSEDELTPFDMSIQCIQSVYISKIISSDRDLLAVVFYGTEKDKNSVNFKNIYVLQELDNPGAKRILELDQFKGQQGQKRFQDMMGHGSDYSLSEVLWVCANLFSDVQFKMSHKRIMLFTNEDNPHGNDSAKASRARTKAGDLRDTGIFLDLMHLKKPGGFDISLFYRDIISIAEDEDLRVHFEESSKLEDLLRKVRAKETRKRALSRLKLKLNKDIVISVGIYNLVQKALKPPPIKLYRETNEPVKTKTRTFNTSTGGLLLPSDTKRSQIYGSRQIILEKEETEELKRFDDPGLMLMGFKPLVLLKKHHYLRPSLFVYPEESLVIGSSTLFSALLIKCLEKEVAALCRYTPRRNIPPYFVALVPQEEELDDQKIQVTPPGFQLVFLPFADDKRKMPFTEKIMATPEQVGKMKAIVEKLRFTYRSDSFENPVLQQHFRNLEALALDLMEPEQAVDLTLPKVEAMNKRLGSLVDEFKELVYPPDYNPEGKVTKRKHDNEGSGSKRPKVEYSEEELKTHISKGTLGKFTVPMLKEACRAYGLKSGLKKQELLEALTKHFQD
Chain of Ku70;FLAG-Ku80 (P13010 whole entry, chain 2 of 2): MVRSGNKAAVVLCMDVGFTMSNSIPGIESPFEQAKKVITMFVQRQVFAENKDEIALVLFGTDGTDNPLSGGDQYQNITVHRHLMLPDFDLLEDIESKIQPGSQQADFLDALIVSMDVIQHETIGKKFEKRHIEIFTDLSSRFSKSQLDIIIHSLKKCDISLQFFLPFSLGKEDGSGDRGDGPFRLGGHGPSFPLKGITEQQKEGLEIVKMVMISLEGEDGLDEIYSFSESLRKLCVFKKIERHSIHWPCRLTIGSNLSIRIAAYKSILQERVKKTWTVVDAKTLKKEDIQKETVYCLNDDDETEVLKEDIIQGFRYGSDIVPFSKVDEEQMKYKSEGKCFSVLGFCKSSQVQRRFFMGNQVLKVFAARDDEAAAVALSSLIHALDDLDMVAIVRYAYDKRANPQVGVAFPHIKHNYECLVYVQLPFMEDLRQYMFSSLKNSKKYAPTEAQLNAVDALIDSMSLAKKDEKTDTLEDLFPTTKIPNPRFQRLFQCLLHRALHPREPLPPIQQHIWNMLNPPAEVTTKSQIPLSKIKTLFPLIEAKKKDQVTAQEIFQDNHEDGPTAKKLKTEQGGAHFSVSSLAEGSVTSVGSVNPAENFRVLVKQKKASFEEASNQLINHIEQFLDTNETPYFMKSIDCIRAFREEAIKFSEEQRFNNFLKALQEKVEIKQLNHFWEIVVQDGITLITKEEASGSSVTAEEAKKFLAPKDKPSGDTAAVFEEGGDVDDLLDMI

B1: Mut 2 (dsDNA)
DNA 1: TTTTGCTTCCCACTTTTG
DNA 2: CAAAAGTGGGAAGCAAAA
Regarding B1, the binding result with DEAF1-FLAG [1] was “no binding”; with Ku70;FLAG-Ku80, “binds”.

B2: N52-69 (dsDNA)
DNA 1: TTCGGCTTCCCACTTCGG
DNA 2: CCGAAGTGGGAAGCCGAA
As for B2, the binding result with Ku70;FLAG-Ku80 and with DEAF1-FLAG [2] was “binds” throughout.

These data come from paper PMC3307728.
